# In patent EP4755919A1, “ANTI-TROP2 ANTIBODY, CONJUGATE COMPRISING SAID ANTIBODY, AND USE THEREOF” (Hanano Technologies Limited, priority 2023, dated 2024):
# What was measured:
# serum albumin = serum albumin (UniProt P02768); test: relative binding activity against HuNb3-11; method not described
# Trop2 [1] = biological target: T1, Trop2 (UniProt P09758 27-323, limits assumed); test: flow cytometry on A431 cells, APC anti-HA detection
# T1 construct: whole, on cells; also called TACSTD2; Trop2 on A431 cells
# T1 sequence (looked up): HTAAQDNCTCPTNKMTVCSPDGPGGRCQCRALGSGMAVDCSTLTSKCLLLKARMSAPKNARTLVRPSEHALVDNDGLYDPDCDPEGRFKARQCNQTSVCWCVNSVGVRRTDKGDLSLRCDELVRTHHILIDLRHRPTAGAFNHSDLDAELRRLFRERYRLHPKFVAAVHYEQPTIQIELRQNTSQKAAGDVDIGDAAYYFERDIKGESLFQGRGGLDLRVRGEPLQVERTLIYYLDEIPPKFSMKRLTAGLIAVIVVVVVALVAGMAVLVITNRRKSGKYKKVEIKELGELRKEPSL
# Trop2 [2] = biological target: T1, Trop2; test: flow cytometry on BxPC3 cells, APC anti-HA detection
# Trop2 [3] = biological target: T1, Trop2; test: flow cytometry on A431 and BxPC3 cells, human albumin added during incubation, goat anti-VHH and Alexa Fluor488 donkey anti-goat detection
# BxPC3 cells [4] = test: Binding activity of long-acting Trop2 antibody conjugated drug to BxPC3 cells by flow cytometry
# Protocol: (§1) Flow cytometry was used to detect the binding activity of these candidate single domain antibodies to Trop2 high expression cell line A431. After the cultured A431 cells were digested with trypsin and neutralized in complete medium, the cells were washed once with PBS, collected and counted, and the cells were added to a 96-well V-bottom plate, 2E5 cells/well. Diluted candidate single domain antibodies and control antibodies BMK1, BMK2 and BMK3 (control antibody sequences are all referred to patent CN111518212B, where BMK1 sequence is the amino acid sequence as set forth in SEQ ID NO: 78, BMK2 sequence is the amino acid sequence as set forth in SEQ ID NO: 65, and BMK3 sequence is the amino acid sequence as set forth in SEQ ID NO: 68) were added to the plate respectively and incubated at 4°C for 40min. After centrifugation, cells were washed with PBS twice, and APC anti-HA antibody was added to incubate at 4°C for 40min. […] APC signal of each sample was detected by flow cytometry.
# (§2) The long-acting Trop2 antibody conjugated drug HuNb1-Alb Nb1-MMAE was incubated with A431 and BxPC3 cells, and the binding activity of the antibody conjugated drug to the cells was detected by flow cytometry. […] After centrifugation, the cells were washed and the supernatant was removed, and the cells were resuspended in PBS and then the Alexa Fluor488 signal of each sample was detected by flow cytometry.
# A431 cells [5] = test: Cell killing activity on A431 cells by Cell Counting Kit-8 (CCK8); assay type: cell-based; details: pre-incubated with human serum albumin, 96 hours culture, CCK8 OD450 (FIG.7)
# Protocol: (§3) The long-acting Trop2 single domain antibody conjugated drug HuNb1-Alb […]-MMAE was gradiently diluted in cell medium and incubated with human serum albumin for 20 minutes, then co-incubated with A431 cells and BxPC3 cells, respectively. Cell Counting Kit-8 was added after 96 hours of culture at 37°C in 5% CO2 incubator, and the cells were incubated in the incubator for 2.5 hours. After reading the data (OD450) in the microplate reader, IC50 was calculated.
# A431 cells [6] = test: Binding activity of long-acting Trop2 antibody conjugated drug to A431 cells by flow cytometry
# Protocol: as §1, §2
# [7] = system: BxPC3 pancreatic cancer cells; test: Anti-tumor activity in BxPC3 tumor-bearing mice; assay type: in vivo; details: NCG mice
# Protocol: NCG mice were inoculated with BxPC3 pancreatic cancer cells for tumorigenesis. When the tumors grew to about 80mm^3, they were divided into groups, with 6 mice in each group. Three dose groups were set up to be intraperitoneally injected with HuNb1-Alb Nb1-MMAE at 0.2mg/kg, 1mg/kg and 5mg/kg, three times a week, respectively. The negative control group was intraperitoneally injected with PBS. The positive control group was intraperitoneally injected with 150mg/kg Gemcitabine, three times a week.
# BxPC3 cells [8] = test: Cell killing activity on BxPC3 cells by Cell Counting Kit-8 (CCK8); assay type: cell-based; details: pre-incubated with human serum albumin, 96 hours culture, CCK8 OD450 (FIG.8)
# Protocol: as §3
# Sequence of serum albumin (P02768 25-609 limits assumed): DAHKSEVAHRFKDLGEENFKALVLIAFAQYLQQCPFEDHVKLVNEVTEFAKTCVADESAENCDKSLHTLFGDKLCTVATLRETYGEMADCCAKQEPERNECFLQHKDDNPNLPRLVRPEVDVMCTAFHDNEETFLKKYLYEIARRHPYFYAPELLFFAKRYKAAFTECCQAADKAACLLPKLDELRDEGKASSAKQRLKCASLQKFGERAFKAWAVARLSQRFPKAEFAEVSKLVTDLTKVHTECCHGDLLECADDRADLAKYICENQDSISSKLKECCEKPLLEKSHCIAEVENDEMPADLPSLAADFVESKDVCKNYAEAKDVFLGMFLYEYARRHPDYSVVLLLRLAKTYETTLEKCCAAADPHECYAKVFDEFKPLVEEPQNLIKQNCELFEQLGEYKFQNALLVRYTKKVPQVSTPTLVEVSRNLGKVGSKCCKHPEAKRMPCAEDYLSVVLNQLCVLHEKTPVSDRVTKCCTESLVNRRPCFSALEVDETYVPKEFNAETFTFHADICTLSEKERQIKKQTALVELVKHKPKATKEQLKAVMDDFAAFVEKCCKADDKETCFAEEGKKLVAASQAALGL
molecule,measurement,setting,value
anti-serum albumin single domain antibody Alb Nb1 (VHH) VHH: EVQLQESGGGLVEPGGSLRLSCVASGFTFQHYAMSWVRQAPGKGLEWVSSISLVGGGTSYADSVKGRFTMSRDNAKNTLYLQLNSLKSEDTAMYYCVRGWHPDVPRPLGQGTLVTVSS,Relative binding activity EC50,serum albumin,92%
anti-serum albumin single domain antibody Alb Nb2 (VHH) VHH: EVQLQESGGGLVEPGGSLRLSCVASGFTFQHYAMSWVRQAPGKGLEWVSSISVVGGGTSYADSVKGRFTMSRDNAKNTLYLQLNSLKSEDTAMYYCVRGWHPDVPRPLGQGTLVTVSS,Relative binding activity EC50,serum albumin,95%
anti-serum albumin single domain antibody Alb Nb3 (VHH) VHH: EVQLQESGGGLVEPGGSLRLSCVASGFTFQHYAMSWVRQAPGKGLEWVSSISIVGGGTSYADSVKGRFTMSRDNAKNTLYLQLNSLKSEDTAMYYCVRGWHPDVPRPLGQGTLVTVSS,Relative binding activity EC50,serum albumin,80%
anti-serum albumin single domain antibody Alb Nb4 (VHH) VHH: EVQLQESGGGLVEPGGSLRLSCVASGFTFQHYAMSWVRQAPGKGLEWVSSISTVGGGTSYADSVKGRFTMSRDNAKNTLYLQLNSLKSEDTAMYYCVRGWHPDVPRPLGQGTLVTVSS,Relative binding activity EC50,serum albumin,71%
"humanized Trop2 single domain antibody HuNb2 (VHH, also called Trop2 HuNb2; not shown: HA tag used for APC anti-HA detection) VHH: EVQLLESGGGLVQPGGSLRLSCVDSGSTYSRRYMGWFRRAPGKGLEGVSVISPYGDSTYYADSVKDRFTISRDNAKNTVYLQMNSLKPEDTAMYYCAASWPYQTASLDAMDFTDWGQGTLVTVSS",binding result,Trop2 [1],binds
"Trop2 single domain antibody Nb1 (VHH, Camel-derived VHH expressed and purified from E. coli (phage vector pMECS); detected through an HA tag; also called Trop2 Nb1; candidate antibody Nb1; not shown: HA tag (and any other vector-derived tag from pMECS) used for APC anti-HA detection) VHH: QVQLQESGGGSVQAGGSLRLSCAASGFTFSRACMGWFRQASGKEREGVAQVYTGGGSTSYADSVKGRFTISQDNAKNTLYLQMNSLKPEDTAVYYCAVGQPYGACYYSDLAPADFSYWGQGTQVTVSS",binding result,Trop2 [1],binds
"humanized Trop2 single domain antibody HuNb1 (VHH, Humanized form of Nb1; also called Trop2 HuNb1; not shown: HA tag used for APC anti-HA detection) VHH: EVQLLESGGGLVQPGGSLRLSCAASGFTFSRACMGWFRQASGKGLEGVAQVYTGGGSTSYADSVKGRFTISQDNAKNTLYLQMNSLKPEDTAVYYCAVGQPYGACYYSDLAPADFSYWGQGTLVTVSS",binding result,Trop2 [2],binds
"long-acting Trop2 antibody conjugated drug HuNb1-Alb Nb1-MMAE (bispecific antibody, vc-PAB-MMAE (Monomethylauristatin E) coupled to the free cysteine (C) at the C-terminus, also called HuNb1-Alb Nb1-GGC conjugated with vc-PAB-MMAE) EVQLLESGGGLVQPGGSLRLSCAASGFTFSRACMGWFRQASGKGLEGVAQVYTGGGSTSYADSVKGRFTISQDNAKNTLYLQMNSLKPEDTAVYYCAVGQPYGACYYSDLAPADFSYWGQGTLVTVSSGGGGSGGGGSGGGGSGGGGSEVQLQESGGGLVEPGGSLRLSCVASGFTFQHYAMSWVRQAPGKGLEWVSSISLVGGGTSYADSVKGRFTMSRDNAKNTLYLQLNSLKSEDTAMYYCVRGWHPDVPRPLGQGTLVTVSSGGC",binding result,Trop2 [3],binds
HuNb1-Alb Nb1-MMAE: long-acting Trop2 antibody conjugated drug: HuNb1-Alb Nb1-GGC coupled with vc-PAB-MMAE (Monomethylauristatin E) (conjugate) EVQLLESGGGLVQPGGSLRLSCAASGFTFSRACMGWFRQASGKGLEGVAQVYTGGGSTSYADSVKGRFTISQDNAKNTLYLQMNSLKPEDTAVYYCAVGQPYGACYYSDLAPADFSYWGQGTLVTVSSGGGGSGGGGSGGGGSGGGGSEVQLQESGGGLVEPGGSLRLSCVASGFTFQHYAMSWVRQAPGKGLEWVSSISLVGGGTSYADSVKGRFTMSRDNAKNTLYLQLNSLKSEDTAMYYCVRGWHPDVPRPLGQGTLVTVSSGGC,binding activity to BxPC3 cells,"BxPC3 cells [4]; flow cytometry, Alexa Fluor488 signal (FIG.6)",good binding activity
same,effect of the presence of HSA protein on binding to BxPC3 cells,BxPC3 cells [4]; human blood albumin added during incubation (FIG.6),not affected by the presence of HSA protein
same,killing effect on A431 cells,A431 cells [5],significant killing effect
same,binding activity to A431 cells,"A431 cells [6]; flow cytometry, Alexa Fluor488 signal (FIG.5)",good binding activity
same,effect of the presence of HSA protein on binding to A431 cells,A431 cells [6]; human blood albumin added during incubation (FIG.5),not affected by the presence of HSA protein
same,tumor of high-dose group,"[7]; high-dose group (5mg/kg intraperitoneal, three times a week), after treatment for 20 days",completely fades
same,treatment effect compared with Gemcitabine,"[7]; high-dose group versus 150mg/kg Gemcitabine intraperitoneal, three times a week",significantly better than the treatment effect of Gemcitabine
same,BXPC3 tumor killing activity,"[7]; intraperitoneal 0.2mg/kg, 1mg/kg and 5mg/kg, three times a week (FIG.9)",significant BXPC3 tumor killing activity
same,killing effect on BxPC3 cells,BxPC3 cells [8],significant killing effect
